The source of these data is PMC5292422, “NBS-LRR Protein Pik-H4 Interacts with OsBIHD1 to Balance Rice Blast Resistance and Growth by Coordinating Ethylene-Brassinosteroid Pathway”.

For the data set, the target named is T1, OsBIHD1 207-527 (HD domain) (Oryza sativa (rice; Pik-H4 NIL?), UniProt Q6QUW0 207-527).
T1 sequence: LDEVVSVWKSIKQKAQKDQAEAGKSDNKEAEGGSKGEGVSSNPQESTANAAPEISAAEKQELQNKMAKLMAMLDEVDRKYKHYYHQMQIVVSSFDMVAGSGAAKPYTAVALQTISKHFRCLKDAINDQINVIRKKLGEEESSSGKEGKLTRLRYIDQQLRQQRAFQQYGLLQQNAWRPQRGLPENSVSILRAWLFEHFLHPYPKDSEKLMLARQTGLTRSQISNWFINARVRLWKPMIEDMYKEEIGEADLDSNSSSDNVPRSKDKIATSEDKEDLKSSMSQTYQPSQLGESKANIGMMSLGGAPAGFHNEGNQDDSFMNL
The data set can be described thus: EMSA; EMSA: 25 C, 30 min, binding buffer of Beyotime Chemiluminescent EMSA Kit GS009 (composition, salt and pH not stated); 10% polyacrylamide gel, 0.5x TBE. The conditions noted are these: protein: recombinant; tags: His (pET28a); label: biotin 3'. (A gel shift assay detects complexes by their altered migration in electrophoresis.)

B1: CYP734A2 promoter TGTCA probe (dsDNA)
DNA 1: TGCATTGTCAGTTAC
DNA 2: GTAACTGACAATGCA
For B1, the binding result is “binds”.

B2: OsACO3 promoter TGTCA probe (dsDNA)
DNA 1: AAATTCTGTCATCATCA
DNA 2: TGATGATGACAGAATTT
With B2, the binding result is given as “binds”.
